According to the supplement of paper PMC10567573:

B1: TRAF3IP2 (parent)
chain: KEHVPTWLQNTHVYSWPKNKKNIL
B2: NFE2L1 (parent)
chain: TLDGYGIHPKSIDLDNYFTARRLL

Variants of: B1
Experiment: protein stability index of a GFP-peptide fusion (GPS, HEK-293T) (PSI 1-6); higher = more stable
Details: c terminus: a fixed tail appended
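Also: lentivirally expressed fusions sorted by FACS into six bins by GFP to DsRed ratio, PSI derived from sequencing read proportions per bin multiplied by bin number.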

| Variant | protein stability index |
| --- | --- |
| KEHVPTWLQNTHVYSWPKNKKNQL [I23Q] | 2.75 |
| KEHVPTWLQNTHVYSWPKNKKNNL [I23N] | 3.19 |
| KEHVPTWLQNTHVYSWPKNKKNYL [I23Y] | 3.55 |
| KEHVPTWLANTHVYSWPKNKKNIL [Q9A] | 2.18 |
| KEHVPTWLMNTHVYSWPKNKKNIL [Q9M] | 2.53 |
| KEHVPTWLKNTHVYSWPKNKKNIL [Q9K] | 1.87 |
| KEHVPTWLINTHVYSWPKNKKNIL [Q9I] | 2.55 |
| KEHVPTWLFNTHVYSWPKNKKNIL [Q9F] | 2.38 |
| KEHVPTWLQNTHVKSWPKNKKNIL [Y14K] | 2.49 |
| KEHVPTWLQNTHVWSWPKNKKNIL [Y14W] | 1.98 |
| KEHVPTWLQNTHVMSWPKNKKNIL [Y14M] | 2.76 |
| KEHVPTWLQNTHVESWPKNKKNIL [Y14E] | 3.14 |
| KEHVPTWLQYTHVYSWPKNKKNIL [N10Y] | 2.6 |
| KEHVPTWLQWTHVYSWPKNKKNIL [N10W] | 1.64 |
| KMHVPTWLQNTHVYSWPKNKKNIL [E2M] | 2.5 |
| KTHVPTWLQNTHVYSWPKNKKNIL [E2T] | 2.33 |
| KCHVPTWLQNTHVYSWPKNKKNIL [E2C] | 1.54 |
| KFHVPTWLQNTHVYSWPKNKKNIL [E2F] | 1.7 |
| KEHVNTWLQNTHVYSWPKNKKNIL [P5N] | 2.26 |
| KEHVWTWLQNTHVYSWPKNKKNIL [P5W] | 2.76 |
| KEHVTTWLQNTHVYSWPKNKKNIL [P5T] | 2.14 |

| Variant | protein stability index |
| --- | --- |
| KEHVPTWLQNTHVYSWPKNKKRIL [N22R] | 2.2 |
| KEHVPTWLQNTHVYSWPKNKKQIL [N22Q] | 2.72 |
| KEHVPTWLQNTHVYSWPKNKKTIL [N22T] | 2.75 |
| KEHVPTILQNTHVYSWPKNKKNIL [W7I] | 2.61 |
| KEHVPTDLQNTHVYSWPKNKKNIL [W7D] | 3.07 |
| KEHVPTHLQNTHVYSWPKNKKNIL [W7H] | 3.21 |
| KEHTPTWLQNTHVYSWPKNKKNIL [V4T] | 3.87 |
| KENVPTWLQNTHVYSWPKNKKNIL [H3N] | 3.17 |
| KEHVPTWLQNTYVYSWPKNKKNIL [H12Y] | 2.6 |
| KEHVPTWLQNTRVYSWPKNKKNIL [H12R] | 3.02 |
| KEHVPTWLQNTIVYSWPKNKKNIL [H12I] | 2.17 |
| KEHVPTWLQNTQVYSWPKNKKNIL [H12Q] | 2.55 |
| KEHVPTWLQNTHVYSWPKFKKNIL [N19F] | 2.02 |
| KEHVPTWLQNTHVYSWPKWKKNIL [N19W] | 1.4 |
| KEHVPTWLQNTHVYSWPKCKKNIL [N19C] | 2.98 |
| KEHVPTWLQNTHVYSWPKIKKNIL [N19I] | 2.08 |
| KEHVPTWLQNTHVYSWPKTKKNIL [N19T] | 2.01 |
| KEHVPTWLQNTHVYSWPKKKKNIL [N19K] | 2.06 |
| KEHVPTWLQNTHRYSWPKNKKNIL [V13R] | 3 |
| KEHVPTWLQNTHPYSWPKNKKNIL [V13P] | 3.07 |
| KEHVPTWLQNTHQYSWPKNKKNIL [V13Q] | 2.31 |

| Variant | protein stability index |
| --- | --- |
| KEHVPTWLQNTHAYSWPKNKKNIL [V13A] | 2.5 |
| KEHVPTWLQNWHVYSWPKNKKNIL [T11W] | 2.3 |
| KEHVPTWLQNYHVYSWPKNKKNIL [T11Y] | 2.36 |
| KEHVPTWLQNDHVYSWPKNKKNIL [T11D] | 2.52 |
| KEHVPTWLQNNHVYSWPKNKKNIL [T11N] | 3.08 |
| TEHVPTWLQNTHVYSWPKNKKNIL [K1T] | 2.71 |
| SEHVPTWLQNTHVYSWPKNKKNIL [K1S] | 2.76 |
| DEHVPTWLQNTHVYSWPKNKKNIL [K1D] | 2.93 |
| KEHVPTWLQNTHVYSCPKNKKNIL [W16C] | 2.88 |
| KEHVPTWLQNTHVYSPPKNKKNIL [W16P] | 3.82 |
| KEHVPTWLQNTHVYSMPKNKKNIL [W16M] | 2.75 |
| KEHVPTWLQNTHVYSHPKNKKNIL [W16H] | 3.39 |
| KEHVPTWLQNTHVYSWPKNKKNIP [L24P] | 2.98 |
| KEHVPTWLQNTHVYSWPKNKKNIE [L24E] | 2.84 |
| KEHVPTWLQNTHVYSWPKNKKNIG [L24G] | 3.93 |
| KEHVPTWLQNTHVYRWPKNKKNIL [S15R] | 3.12 |
| KEHVPTWLQNTHVYAWPKNKKNIL [S15A] | 3.19 |
| KEHVPTWLQNTHVYTWPKNKKNIL [S15T] | 2.54 |
| KEHVPTWLQNTHVYDWPKNKKNIL [S15D] | 2.89 |
| KEHVPTWLQNTHVYEWPKNKKNIL [S15E] | 2.6 |
| KEHVPTWLQNTHVYSWPKNKGNIL [K21G] | 2.31 |

| Variant | protein stability index |
| --- | --- |
| KEHVPTWLQNTHVYSWPKNKANIL [K21A] | 2.08 |
| KEHVPTWLQNTHVYSWPKNKENIL [K21E] | 2.68 |
| KEHVPTWLQNTHVYSWPKNKPNIL [K21P] | 2.79 |
| KEHVPTWLQNTHVYSWPKNKNNIL [K21N] | 1.93 |
| KEHVPCWLQNTHVYSWPKNKKNIL [T6C] | 1.81 |
| KEHVPYWLQNTHVYSWPKNKKNIL [T6Y] | 2.32 |
| KEHVPTWLQNTHVYSWPCNKKNIL [K18C] | 2.33 |
| KEHVPTWLQNTHVYSWPSNKKNIL [K18S] | 2.1 |
| KEHVPTWLQNTHVYSWPHNKKNIL [K18H] | 2.37 |
| KEHVPTWLQNTHVYSWPDNKKNIL [K18D] | 2.17 |
| KEHVPTWWQNTHVYSWPKNKKNIL [L8W] | 2.63 |
| KEHVPTWSQNTHVYSWPKNKKNIL [L8S] | 3.01 |
| KEHVPTWLQNTHVYSWAKNKKNIL [P17A] | 2.22 |
| KEHVPTWLQNTHVYSWIKNKKNIL [P17I] | 2.1 |
| KEHVPTWLQNTHVYSWDKNKKNIL [P17D] | 2.71 |
| KEHVPTWLQNTHVYSWNKNKKNIL [P17N] | 1.95 |
| KEHVPTWLQNTHVYSWKKNKKNIL [P17K] | 2.31 |
| KEHVPTWLQNTHVYSWPKNNKNIL [K20N] | 2.02 |
| KEHVPTWLQNTHVYSWPKNEKNIL [K20E] | 2.54 |
| KEHVPTWLQNTHVYSWPKNIKNIL [K20I] | 3.38 |

Variants of: B2
Experiment: as above
Details: c terminus: a fixed tail appended

| Variant | protein stability index |
| --- | --- |
| TLDGYGIHPKSIDLDNYQTARRLL [F18Q] | 2.69 |
| TLDGYGIHPKSIDLDNYHTARRLL [F18H] | 2.34 |
| TLDGYGIHPKSIDLDNYYTARRLL [F18Y] | 1.99 |
| TLDGYGIHPKSIDLDNYATARRLL [F18A] | 2.93 |
| TLDGYGIHPKSIDLDNYDTARRLL [F18D] | 3.26 |
| TLDGYGIHPKSIDLDNYITARRLL [F18I] | 1.92 |
| TLDGYGIHPKSIDLDNYFTAKRLL [R21K] | 1.96 |
| TLDGYGIHPKSIDLDNYFTAERLL [R21E] | 2.12 |
| TLDGYGIHPKSIDLDNYFTAQRLL [R21Q] | 1.71 |
| TLDGYGIHPKSIDLDNYFTAHRLL [R21H] | 2.8 |
| TLDGYGIHPKSIDLDNYFTAVRLL [R21V] | 2.72 |
